Data taken from US20050106661A1 (RIKEN, published 2005).
Numbering of substitutions follows the chain as printed. Names may count otherwise.

B1: Azami-Green, fluorescent protein derived from Galaxea fascicularis (other)
chain: MSVIKPEMKIKLCMRGTVNGHNFVIEGEGKGNPYEGTQILDLNVTEGAPLPFAYDILTTVFQYGNRAFTKYPADIQDYFKQTFPEGYHWERSMTYEDQGICTATSNISMRGDCFFYDIRFDGVNFPPNGPVMQKKTLKWEPSTEKMYVRDGVLKGDVNMALLLEGGGHYRCDFKTTYKAKKDVRLPDYHFVDHRIEILKHDKDYNKVKLYENAVARYSMLPSQAK
notes: Expressed in E. coli with a C-terminal His-tag and purified on Ni-agarose; also called wild-type Azami-Green; fluorescent protein of the present invention derived from coral; not shown: C-terminal His-tag from the pET28 vector (NcoI/XhoI cloning)
B2: mAG, monomeric mutant of Azami-Green (V123T, Y188A, F190K) (other)
chain: B1 chain with V123T, Y188A, F190K
notes: also called modified monomeric fluorescent protein

Columns and labels:
[1] = target: the molecule itself; assay: formation of multimer (light scattering); self-association
Method: The fluorescent protein was equilibrated with 50 mM HEPES (pH 7.5) and 150 mM KCl.

[2] = target: the molecule itself; assay: molecular weight by light scattering (34 kDa)

Row | Protein | binding result [1] | binding result [2]
1 | B1 | binds | 
2 | B2 |  | no binding
